Sequences and labels used below:
B1: humanized h18E4-19 antibody (antibody, V domains shown)
VH: EVQLLESGGGLVQPGGSLRLSCAASGFSFNNYWIIWIRQAPGKGLEWVAAIYSPSGDIKYYADWAKGRFTVSKDNSKNTVYLQMNSLRAEDTAVYYCARELSGSSYEGYFESWGQGTLVTVSS
VL: DIQLTQSPSTLSASVGDRVTITCRSSQSVYGHNWLAWYQQKPGKAPKLLMYRASNLASGVPSRFSGSGSGTEFTLTISSVQPDDFATYYCQGYYSGGSYAFGGGTKVEIK
notes: the control is hIgG1; also called hu18E4-19; Anti-CD38
B2: Anti-CD38 LC_G90A (antibody, V domains shown)
VH: EVQLLESGGGLVQPGGSLRLSCAASGFSFNNYWIIWIRQAPGKGLEWVAAIYSPSGDIKYYADWAKGRFTVSKDNSKNTVYLQMNSLRAEDTAVYYCARELSGSSYEGYFESWGQGTLVTVSS
VL: DIQLTQSPSTLSASVGDRVTITCRSSQSVYGHNWLAWYQQKPGKAPKLLMYRASNLASGVPSRFSGSGSGTEFTLTISSVQPDDFATYYCQAYYSGGSYAFGGGTKVEIK
notes: Alanine variant of h18E4-19 with the parent VH
B3: Anti-CD38 HC_S97A (antibody, V domains shown)
VH: EVQLLESGGGLVQPGGSLRLSCAASGFSFNNYWIIWIRQAPGKGLEWVAAIYSPSGDIKYYADWAKGRFTVSKDNSKNTVYLQMNSLRAEDTAVYYCARELAGSSYEGYFESWGQGTLVTVSS
VL: DIQLTQSPSTLSASVGDRVTITCRSSQSVYGHNWLAWYQQKPGKAPKLLMYRASNLASGVPSRFSGSGSGTEFTLTISSVQPDDFATYYCQGYYSGGSYAFGGGTKVEIK
notes: Alanine variant of h18E4-19 with the parent VL
B4: Anti-CD38 HC_Y100dA (antibody, V domains shown)
VH: EVQLLESGGGLVQPGGSLRLSCAASGFSFNNYWIIWIRQAPGKGLEWVAAIYSPSGDIKYYADWAKGRFTVSKDNSKNTVYLQMNSLRAEDTAVYYCARELSGSSYEGAFESWGQGTLVTVSS
VL: DIQLTQSPSTLSASVGDRVTITCRSSQSVYGHNWLAWYQQKPGKAPKLLMYRASNLASGVPSRFSGSGSGTEFTLTISSVQPDDFATYYCQGYYSGGSYAFGGGTKVEIK
notes: as for B3
B5: Anti-CD38 HC_E100bA (antibody, V domains shown)
VH: EVQLLESGGGLVQPGGSLRLSCAASGFSFNNYWIIWIRQAPGKGLEWVAAIYSPSGDIKYYADWAKGRFTVSKDNSKNTVYLQMNSLRAEDTAVYYCARELSGSSYAGYFESWGQGTLVTVSS
VL: DIQLTQSPSTLSASVGDRVTITCRSSQSVYGHNWLAWYQQKPGKAPKLLMYRASNLASGVPSRFSGSGSGTEFTLTISSVQPDDFATYYCQGYYSGGSYAFGGGTKVEIK
notes: as for B3
B6: Anti-CD38 HC_Y100aA (antibody, V domains shown)
VH: EVQLLESGGGLVQPGGSLRLSCAASGFSFNNYWIIWIRQAPGKGLEWVAAIYSPSGDIKYYADWAKGRFTVSKDNSKNTVYLQMNSLRAEDTAVYYCARELSGSSAEGYFESWGQGTLVTVSS
VL: DIQLTQSPSTLSASVGDRVTITCRSSQSVYGHNWLAWYQQKPGKAPKLLMYRASNLASGVPSRFSGSGSGTEFTLTISSVQPDDFATYYCQGYYSGGSYAFGGGTKVEIK
notes: as for B3
B7: Anti-CD38 HC_G98A (antibody, V domains shown)
VH: EVQLLESGGGLVQPGGSLRLSCAASGFSFNNYWIIWIRQAPGKGLEWVAAIYSPSGDIKYYADWAKGRFTVSKDNSKNTVYLQMNSLRAEDTAVYYCARELSASSYEGYFESWGQGTLVTVSS
VL: DIQLTQSPSTLSASVGDRVTITCRSSQSVYGHNWLAWYQQKPGKAPKLLMYRASNLASGVPSRFSGSGSGTEFTLTISSVQPDDFATYYCQGYYSGGSYAFGGGTKVEIK
notes: as for B3
B8: Anti-CD38 LC_S93A (antibody, V domains shown)
VH: EVQLLESGGGLVQPGGSLRLSCAASGFSFNNYWIIWIRQAPGKGLEWVAAIYSPSGDIKYYADWAKGRFTVSKDNSKNTVYLQMNSLRAEDTAVYYCARELSGSSYEGYFESWGQGTLVTVSS
VL: DIQLTQSPSTLSASVGDRVTITCRSSQSVYGHNWLAWYQQKPGKAPKLLMYRASNLASGVPSRFSGSGSGTEFTLTISSVQPDDFATYYCQGYYAGGSYAFGGGTKVEIK
notes: as for B2
B9: Anti-CD38 LC_S95aA (antibody, V domains shown)
VH: EVQLLESGGGLVQPGGSLRLSCAASGFSFNNYWIIWIRQAPGKGLEWVAAIYSPSGDIKYYADWAKGRFTVSKDNSKNTVYLQMNSLRAEDTAVYYCARELSGSSYEGYFESWGQGTLVTVSS
VL: DIQLTQSPSTLSASVGDRVTITCRSSQSVYGHNWLAWYQQKPGKAPKLLMYRASNLASGVPSRFSGSGSGTEFTLTISSVQPDDFATYYCQGYYSGGAYAFGGGTKVEIK
notes: as for B2
B10: Anti-CD38 HC_E101A (antibody, V domains shown)
VH: EVQLLESGGGLVQPGGSLRLSCAASGFSFNNYWIIWIRQAPGKGLEWVAAIYSPSGDIKYYADWAKGRFTVSKDNSKNTVYLQMNSLRAEDTAVYYCARELSGSSYEGYFASWGQGTLVTVSS
VL: DIQLTQSPSTLSASVGDRVTITCRSSQSVYGHNWLAWYQQKPGKAPKLLMYRASNLASGVPSRFSGSGSGTEFTLTISSVQPDDFATYYCQGYYSGGSYAFGGGTKVEIK
notes: as for B3
B11: Anti-CD38 LC_G94A (antibody, V domains shown)
VH: EVQLLESGGGLVQPGGSLRLSCAASGFSFNNYWIIWIRQAPGKGLEWVAAIYSPSGDIKYYADWAKGRFTVSKDNSKNTVYLQMNSLRAEDTAVYYCARELSGSSYEGYFESWGQGTLVTVSS
VL: DIQLTQSPSTLSASVGDRVTITCRSSQSVYGHNWLAWYQQKPGKAPKLLMYRASNLASGVPSRFSGSGSGTEFTLTISSVQPDDFATYYCQGYYSAGSYAFGGGTKVEIK
notes: Alanine variant of h18E4-19 with the parent VH; also called Anti-CD38low
B12: Anti-CD38 HC_S100A (antibody, V domains shown)
VH: EVQLLESGGGLVQPGGSLRLSCAASGFSFNNYWIIWIRQAPGKGLEWVAAIYSPSGDIKYYADWAKGRFTVSKDNSKNTVYLQMNSLRAEDTAVYYCARELSGSAYEGYFESWGQGTLVTVSS
VL: DIQLTQSPSTLSASVGDRVTITCRSSQSVYGHNWLAWYQQKPGKAPKLLMYRASNLASGVPSRFSGSGSGTEFTLTISSVQPDDFATYYCQGYYSGGSYAFGGGTKVEIK
notes: as for B3
B13: Anti-CD38 LC_Y91A (antibody, V domains shown)
VH: EVQLLESGGGLVQPGGSLRLSCAASGFSFNNYWIIWIRQAPGKGLEWVAAIYSPSGDIKYYADWAKGRFTVSKDNSKNTVYLQMNSLRAEDTAVYYCARELSGSSYEGYFESWGQGTLVTVSS
VL: DIQLTQSPSTLSASVGDRVTITCRSSQSVYGHNWLAWYQQKPGKAPKLLMYRASNLASGVPSRFSGSGSGTEFTLTISSVQPDDFATYYCQGAYSGGSYAFGGGTKVEIK
notes: as for B2
B14: Anti-CD38 HC_E95A (antibody, V domains shown)
VH: EVQLLESGGGLVQPGGSLRLSCAASGFSFNNYWIIWIRQAPGKGLEWVAAIYSPSGDIKYYADWAKGRFTVSKDNSKNTVYLQMNSLRAEDTAVYYCARALSGSSYEGYFESWGQGTLVTVSS
VL: DIQLTQSPSTLSASVGDRVTITCRSSQSVYGHNWLAWYQQKPGKAPKLLMYRASNLASGVPSRFSGSGSGTEFTLTISSVQPDDFATYYCQGYYSGGSYAFGGGTKVEIK
notes: as for B3
B15: Anti-CD38 HC_S102A (antibody, V domains shown)
VH: EVQLLESGGGLVQPGGSLRLSCAASGFSFNNYWIIWIRQAPGKGLEWVAAIYSPSGDIKYYADWAKGRFTVSKDNSKNTVYLQMNSLRAEDTAVYYCARELSGSSYEGYFEAWGQGTLVTVSS
VL: DIQLTQSPSTLSASVGDRVTITCRSSQSVYGHNWLAWYQQKPGKAPKLLMYRASNLASGVPSRFSGSGSGTEFTLTISSVQPDDFATYYCQGYYSGGSYAFGGGTKVEIK
notes: as for B3
B16: Anti-CD38 HC_S99A (antibody, V domains shown)
VH: EVQLLESGGGLVQPGGSLRLSCAASGFSFNNYWIIWIRQAPGKGLEWVAAIYSPSGDIKYYADWAKGRFTVSKDNSKNTVYLQMNSLRAEDTAVYYCARELSGASYEGYFESWGQGTLVTVSS
VL: DIQLTQSPSTLSASVGDRVTITCRSSQSVYGHNWLAWYQQKPGKAPKLLMYRASNLASGVPSRFSGSGSGTEFTLTISSVQPDDFATYYCQGYYSGGSYAFGGGTKVEIK
notes: as for B3
B17: Anti-CD38 LC_G95A (antibody, V domains shown)
VH: EVQLLESGGGLVQPGGSLRLSCAASGFSFNNYWIIWIRQAPGKGLEWVAAIYSPSGDIKYYADWAKGRFTVSKDNSKNTVYLQMNSLRAEDTAVYYCARELSGSSYEGYFESWGQGTLVTVSS
VL: DIQLTQSPSTLSASVGDRVTITCRSSQSVYGHNWLAWYQQKPGKAPKLLMYRASNLASGVPSRFSGSGSGTEFTLTISSVQPDDFATYYCQGYYSGASYAFGGGTKVEIK
notes: as for B2
B18: Anti-CD38 HC_L96A (antibody, V domains shown)
VH: EVQLLESGGGLVQPGGSLRLSCAASGFSFNNYWIIWIRQAPGKGLEWVAAIYSPSGDIKYYADWAKGRFTVSKDNSKNTVYLQMNSLRAEDTAVYYCAREASGSSYEGYFESWGQGTLVTVSS
VL: DIQLTQSPSTLSASVGDRVTITCRSSQSVYGHNWLAWYQQKPGKAPKLLMYRASNLASGVPSRFSGSGSGTEFTLTISSVQPDDFATYYCQGYYSGGSYAFGGGTKVEIK
notes: as for B3
B19: Anti-CD38 LC_Q89A (antibody, V domains shown)
VH: EVQLLESGGGLVQPGGSLRLSCAASGFSFNNYWIIWIRQAPGKGLEWVAAIYSPSGDIKYYADWAKGRFTVSKDNSKNTVYLQMNSLRAEDTAVYYCARELSGSSYEGYFESWGQGTLVTVSS
VL: DIQLTQSPSTLSASVGDRVTITCRSSQSVYGHNWLAWYQQKPGKAPKLLMYRASNLASGVPSRFSGSGSGTEFTLTISSVQPDDFATYYCAGYYSGGSYAFGGGTKVEIK
notes: Alanine variant of h18E4-19 with the parent VH; also called Anti-CD38med
B20: Anti-CD38 HC_F100eA (antibody, V domains shown)
VH: EVQLLESGGGLVQPGGSLRLSCAASGFSFNNYWIIWIRQAPGKGLEWVAAIYSPSGDIKYYADWAKGRFTVSKDNSKNTVYLQMNSLRAEDTAVYYCARELSGSSYEGYAESWGQGTLVTVSS
VL: DIQLTQSPSTLSASVGDRVTITCRSSQSVYGHNWLAWYQQKPGKAPKLLMYRASNLASGVPSRFSGSGSGTEFTLTISSVQPDDFATYYCQGYYSGGSYAFGGGTKVEIK
notes: as for B3
B21: Anti-CD38 HC_G100cA (antibody, V domains shown)
VH: EVQLLESGGGLVQPGGSLRLSCAASGFSFNNYWIIWIRQAPGKGLEWVAAIYSPSGDIKYYADWAKGRFTVSKDNSKNTVYLQMNSLRAEDTAVYYCARELSGSSYEAYFESWGQGTLVTVSS
VL: DIQLTQSPSTLSASVGDRVTITCRSSQSVYGHNWLAWYQQKPGKAPKLLMYRASNLASGVPSRFSGSGSGTEFTLTISSVQPDDFATYYCQGYYSGGSYAFGGGTKVEIK
notes: as for B3

For 21 molecules, EC50 results are on record in patent US20230183381A1 (VIRTUOSO BINCO, published 2023).

Some results are limits rather than exact numbers.

This assay deals with T1, human CD38 extracellular domain (hCD38, recombinant, with AviTag) (human, UniProt P28907 43-300).
T1 construct: also called recombinant CD38; huCD38
Kind of assay: ELISA on human CD38 ECD, EC50 class. A general note: An ELISA detects its analyte on a solid surface through an enzyme-linked reagent.
The term EC50 denotes the concentration needed to bring the measured effect to its halfway point. Turning to B1, the concentration giving a half-maximal response (EC50) lay within 0.02 to 0.1 nM. The same measure for B2: 0.1 to 0.5 nM.

Regarding B3, the EC50 was in the range of 0.02 to 0.1 nM. Turning to B4, the EC50 is more than 0.5 nM. Regarding B5, the concentration for a half-maximal effect (EC50) is more than 0.5 nM.

With B6, the EC50 lay within 0.02 to 0.1 nM.

On to B7, for which the concentration giving a half-maximal response (EC50) fell in the range of 0.02 to 0.1 nM. For the molecule B8, the concentration for a half-maximal effect (EC50) was 0.1 to 0.5 nM. Take B9: the EC50 was 0.02 to 0.1 nM. As for B10, the EC50 was 0.02 to 0.1 nM. Take B11: the concentration for a half-maximal effect (EC50) was more than 0.5 nM.

In the case of B12, the EC50 is 0.02 to 0.1 nM. In the case of B13, the EC50 is more than 0.5 nM. As for B14, the EC50 was more than 0.5 nM. Consider B15, for which the EC50 was 0.02 to 0.1 nM.

For the molecule B16, the EC50 was in the range of 0.02 to 0.1 nM. On to B17, for which the EC50 was 0.02 to 0.1 nM. On to B18, for which the EC50 lay in the range of 0.02 to 0.1 nM.

For the molecule B19, the EC50 was 0.02 to 0.1 nM.

B20: the EC50 fell in the range of 0.02 to 0.1 nM. B21: the concentration for a half-maximal effect (EC50) lay within 0.1 to 0.5 nM.
